Patent US20240052052A1 (ANTENGENE BIOLOGICS, published 2024)
Changes are numbered by the printed parent chain.

T1: human CD24 (human, UniProt P25063 27-59, heavily glycosylated, GPI-anchored (as described in the background))
T1 construct: whole, on cells; Target of all cell-based FACS assays; also called hCD24; Cluster of differentiation 24
T1 chain (looked up): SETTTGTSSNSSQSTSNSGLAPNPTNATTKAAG

B1: 81A1F8 (antibody, V domains shown)
VH: EVQLQQSGPELVKPGASVKISCKATGYLFTGYYMNWVKQSPEKSLEWIGEINPNTGDTNNNQKFKAKATMTVDRSSSTAYMQLKRLTSEDSAVYYCVRRDYGTSLDYWGQGTTLTVSS
VL: DVQITQSPSYLAASPGETITINCRASKSINKYLAWYQEKPGKTNKLLIHSGSTLQSGIPSRFSGSRSGTDFTLTISNLEPEDFAMYYCQQHNEYPITFGAGTKLELK
notes: mouse monoclonal antibody
B2: 73H5-1G2 (antibody, V domains shown)
VH: QVQLKQSGPGLVQPSQSLSITCTVSGFSLTNYGVHWIRQSPGKGLEWLGVIWRGGSTDYNAAFMSRLSITKDNSKSQVFFQMNSLQAADTAIYYCANNYGYDCFAYWGQGTLVTVSA
VL: B1 VL with N30I, H49Y, R66G, S76T, N77S, I96L, K103R
notes: mouse monoclonal antibody
B3: 110D4G4 (antibody, V domains shown)
VH: EVQLQQSGPGLVKPGASVKISCRASGYLFTGYYMNWVKQSPEKSLEWIGEINPNTGDPRYDQKFKAKATLTVDRSSSTAYMHLKSLTSEDSAVYFCARRDYGTSLDYWGQGTTLTVTS
VL: B1 VL with N30S, H49Y, R66G, T69S, N77S, I96L
notes: mouse monoclonal antibody; also called mAb-110D4G4
B4: 81A1F8-VH-11/VL-21 (antibody, V domains shown)
VH: QVQLVQSGAEVKKPGASVKVSCKASGYLFTGYYMNWVRQAPGQGLEWMGEINPNTGDTNNNQKFKARVTMTVDRSISTAYMELSRLRSDDTAVYYCVRRDYGTSLDYWGQGTLVTVSS
VL: DVQITQSPSFLSASVGDRVTITCRASKSINKYLAWYQQKPGKAPKLLIHSGSTLQSGVPSRFSGSRSGTEFTLTISSLQPEDFATYYCQQHNEYPITFGQGTKLEIK
notes: humanized antibody based on 81A1F8; also called 81A1F8-1121
B5: 81A1F8-VH-11/VL-41 (antibody, V domains shown)
VH: B4 VH
VL: B4 VL with F10T, E81D
notes: humanized antibody based on 81A1F8
B6: 81A1F8-VH-21/VL-21 (antibody, V domains shown)
VH: B4 VH with I76T, R85S, D89E
VL: B4 VL
notes: humanized antibody based on 81A1F8; also called 81A1F8-2121
B7: 81A1F8-VH-21/VL-41 (antibody, V domains shown)
VH: B4 VH with I76T, R85S, D89E
VL: B4 VL with F10T, E81D
notes: humanized antibody based on 81A1F8; also called 81A1F8-2141
B8: 56A7E3 (antibody, V domains shown)
VH: EVQLQQSGPELVKPGASVKIPCKASGYTFTAYNMDWVKQSHGMSLEWIGDINPINGGTIYNQNFEGKATLTVDKSSSTAYLELRSLTSEDTAVYYCARRGSYYYGSSHYALDFWGQGTSVSVSS
VL: DIQMTQITSSLSASLGDRVTITCRASQDISNYLNWYQQKPDGTVKLLIYYTSRLLSGVPSRFSGSGSGTDYSLTISNLEQEDIATYFCQQDHTLPRTFGGGTKLEIR
notes: mouse monoclonal antibody
B9: 58F10-1F6 (antibody, V domains shown)
VH: EVQLRQSGPELVKPGAAVKISCKASGYSFTGYHMNWVKQSPEKSLEWIGEINPITSGITYNQIFKAKATLTVDKSSSTAYLQLKSLTSEDSAVYYCTRRDYGTSLDYWGQGTTLTVSS
VL: B8 VL
notes: mouse monoclonal antibody
B10: 71A4F12 (antibody, V domains shown)
VH: B8 VH with I54N, G57D, I59V, E65K, L81M
VL: B8 VL with D17N, T22S, S30R, H92N, T93S, K103R
notes: mouse monoclonal antibody

What was measured:
[1] = molecular target: T1, human CD24; experiment: FACS, 5637 cells
Experimental: (§1) Sequences of some of antibodies from Table 1 were selected to generate and produce human IgG4 chimeric antibodies. […] The protocol for FACs analysis is described as follows: [0536] a. Digested cells using TrypLE™ Express Enzyme (IX); Centrifuged the harvested cells at 400 g for 5 min and discarding the supernatant. [0537] b. Washed the cells 2 times with cold FACS buffer by centrifuging at 400 g for 5 min and discarding the supernatant. [0538] c. […] Incubate at […] for 1 h. [0539] d. Washed the cells twice by using the condition in step b. Resuspended the cells with 100 μl/well diluted 2nd antibody, incubated at 4 degree for 1 h in the dark. [0540] e. Washed the cells twice by using the condition in step b. Resuspended the cells with 100 μl/well cold FACS buffer. Kept the cells in dark for FACS analysis.

[2] = molecular target: T1, human CD24; experiment: FACS, MCF7 cells
Experimental: as §1

[3] = molecular target: T1, human CD24; experiment: FACS, 5637 cells
Experimental: (§2) Screening & Expansion: The subcloning plates were screened by Acumen assay and the subclones with good binding ability were expanded to 24-wells for confirmation tests. The specificity and cross-reactivity of these subclones were confirmed with FACs analysis. […] Fluorescent dye-conjugated secondary antibody was used to detect the binding of the primary antibody with the cells. Median fluorescence intensity (MFI) was measured by FACs analysis.

[4] = molecular target: T1, human CD24; experiment: FACS, MCF7 cells
Experimental: as §2

[5] = molecular target: T1, human CD24; experiment: FACS, MDA-MB-468 cells
Experimental: as §1

[6] = molecular target: T1, human CD24; experiment: FACS, H1975 cells
Experimental: as §1

[7] = molecular target: T1, human CD24; experiment: FACS, A549 cells
Experimental: as §1

[8] = molecular target: T1, human CD24; experiment: FACS, Nalm1 cells
Experimental: as §2

[9] = molecular target: T1, human CD24; experiment: FACS, Nalm1 cells
Experimental: as §1

[10] = molecular target: T1, human CD24; experiment: FACS, 293F-hCD24 cells
Experimental: as §1

[11] = molecular target: T1, human CD24; experiment: FACS, CHOK1-hCD24 cells
Experimental: as §1

[12] = molecular target: T1, human CD24; experiment: FACS, H1975 cells
Experimental: as §2

[13] = molecular target: T1, human CD24; experiment: FACS, HT-29 cells
Experimental: as §1

[14] = molecular target: T1, human CD24; experiment: FACS, 293F-hCD24 cells
Experimental: as §2

[15] = molecular target: T1, human CD24; experiment: flow cytometry, HT-29 and Nalm6 cells
Experimental: Briefly, HT-29 or Nalm6 cells were washed three times using PBS and firstly incubated with humanized variants. After three times washing, secondary antibody was incubated with cells. MFI of the samples was analyzed with Flow Cytometry and cells-based affinity was calculated.

EC50 [1]	EC50 [2]	FACS MFI [3]	FACS MFI [4]	EC50 [5]	FACS MFI [5]	EC50 [6]	EC50 [7]	Max MFI [7]	FACS MFI [8]	EC50 [9]	Max MFI [9]	EC50 [10]	Max MFI [10]	EC50 [11]	Max MFI [11]	FACS MFI [12]	EC50 [13]	Max MFI [13]	FACS MFI [14]	also measured	Binder
3.31 nM	3 nM	22200	11500	5.23 nM	24900	2.03 nM	2.37 nM	8660	24800	1.9 nM	24800	1.7 nM	10300	1.52 nM	45900	10600	2.93 nM	3050	10300		B1
24.6 nM	45.9 nM	6360	373	28 nM	6400	31.3 nM	36 nM	5700	58500	33.8 nM	58500	16.2 nM	20100	23.8 nM	19900	2200	40 nM	4820	20100	Max MFI [1]: 7440	B2
5.89 nM	5.2 nM	47100	21200	12.2 nM	52800	5.22 nM	2.72 nM	18400	76200	3.27 nM	76200	6.55 nM	56500	1.52 nM	28900	24900	2.92 nM	5610	56500		B3
																				binding result [15]: binds	B4
																				binding result [15]: binds	B5
																				binding result [15]: binds	B6
																				binding result [15]: binds	B7
31.6 nM	81.7 nM	18500	9190	16.7 nM	15300	93.1 nM	92.4 nM	3320	74600	20.9 nM	74600	7.52 nM	26400	4.85 nM	36700	2190	18.1 nM	1460	26400		B8
22.4 nM	43.4 nM	34200	17400	38.9 nM	49800	53.1 nM	12.6 nM	12600	20900	8.72 nM	60300	24.1 nM	58200	9.7 nM	28100	17500	10.8 nM	4900	7420		B9
39.7 nM	121 nM	18600	2420	11.7 nM	32500	71.9 nM	1.97 nM	4410	45000	6.28 nM	45000	6.74 nM	39400	1.72 nM	28800	7200	5.46 nM	4780	7350	Max MFI [2]: 12600	B10
